From US12624123B2, “Compositions and methods for reducing off-target toxicity of antibody drug conjugates” (The Research Foundation for The State University of New York, priority 2019, dated 2026)
Values joined by “and” are separate entries in the source; they are usually repeats but may differ in a detail not shown here. Equal entries are not always repeated. “Also recorded” adds a separate entry of the source.

How the values were obtained:
SK-BR-3 cells [1] = assay: MTT cytotoxicity assay in SK-BR-3 cells; assay type: cell-based; settings: 24 h exposure, 10 μM sdAb
Method: Positive clone sdAbs' DNA in pComb3XSS plasmid was isolated and transferred into pET-22b expression vector in SHuffle cells for expression. SK-BR-3 cells were used to test the anti-DM4 sdAbs effect on DM4 cytotoxicity. Briefly, 2,500 cells/well were seeded into a 96-well plate and allowed to adhere for 24 h before cell culture media was aspirated and replaced with 100 μL of fresh media solution containing with or without 10 μM of anti-DM4 sdAb and a range of DM4 concentration for another 24 h exposure period. The cells were then washed 2 times before replacing with fresh media and allowed to grow for additional 72 h.

[2] = Competitive ELISA with free DM4; assay type: binding
Method: To determine the binding affinity of the anti-DM4 sdAbs to DM4-conjugates and free DM4, indirect ELISA and competitive ELISA were employed. Briefly, ELISA plate were coated overnight with 100 μL of neutravidin at different concentration ranging from 1 μg/mL to 10 μg/mL. After blocking with 200 μL of 2% skimmed milk-PBST for 1 h, 100 μL of 1 μM biotin-DM4 solution was added into each well and incubated for 30 min, then 100 μL of purified anti-DM4 sdAb solution at concentration ranging from 0.1 nM to 1 μM was added and incubated for 1 h. Bound sdAbs were detected with HRP conjugated anti-His antibody and TMB substrate. After the linear range of binding was determined via the indirect ELISA, a concentration of anti-DM4 sdAb near the IC50 of binding was selected to proceed with competitive ELISA. For the competitive ELISA, anti-DM4 sdAb concentration was held constant as determined from the indirect ELISA and incubated with increasing concentration of DM4 ranging from 0.1 nM to 1 μM.

SK-BR-3 cells [3] = assay: MTT cytotoxicity assay in SK-BR-3 cells; assay type: cell-based; settings: 10 μM DMFH1
KG-1 cells = assay: MTT assay with DMFH1 in AML cell line KG-1; settings: KG-1, 48-hour exposure, 10 μM DMFH1
Method: (§1) MTT Cell based assay with DMFH1 in AML cell lines. Cell cytotoxicity of DM4 on MOLM-14, KG-1, Kasumi-3, MV-4-11 cells with and without 10 μM of DMFH1 sdAb over a 48-hour exposure periods.

MOLM-14 cells = assay: MTT assay with DMFH1 in AML cell line MOLM-14; settings: MOLM-14, 48-hour exposure, 10 μM DMFH1
Method: as §1

MV-4-11 cells = assay: MTT assay with DMFH1 in AML cell line MV-4-11; settings: MV-4-11, 48-hour exposure, 10 μM DMFH1
Method: as §1

Kasumi-3 cells = assay: MTT assay with DMFH1 in AML cell line Kasumi-3; settings: Kasumi-3, 48-hour exposure, 10 μM DMFH1
Method: as §1

B1: DMFH1 (protein)
VHH: QVQLQESGGGLVQPGGSLRLSCAASGSIFGISYMGWYRQAPGKQREPVAMITSGGSTYYADSVKGRVTISRDNAKKTVYLQMNSLRPEDASTYYCAAGCYRSDSPNRYDYWGQGTQVTVSS
modifications: DMFH1
Fold shifted (DM4 IC50) (SK-BR-3 cells [1]): 254 fold and 250.5 fold
Kd ([2]; free DM4, read-out: Estimated KD): 11 nM and 10.5 nM
IC50 ([2]; read-out: Estimated binding affinity IC50 to free DM4): 11 nM
effect on Trastuzumab Emtansine (T-DM1) cytotoxicity (SK-BR-3 cells [3]): did not alter the cytotoxicity; also recorded: did not change T-DM1 cytotoxicity significantly
fold shift of DM1 IC50 (SK-BR-3 cells [3]; 24 h): 85.6 fold
fold shift of DM4 IC50 (KG-1 cells): 57.2 fold
fold shift of DM4 IC50 (MOLM-14 cells): 60.7 fold
fold shift of DM4 IC50 (MV-4-11 cells): 50.9 fold
fold shift of DM4 IC50 (Kasumi-3 cells): 38.3 fold
